# Test results taken from patent US20110230643A1.
# Target: Toll-like receptor 5 (TLR5), constitutively expressed on Caco-2 cells (UniProt O60602)
# Experiment: cell-based or functional assay
# UniProt O60602, sequence (O60602 21-858 limits assumed): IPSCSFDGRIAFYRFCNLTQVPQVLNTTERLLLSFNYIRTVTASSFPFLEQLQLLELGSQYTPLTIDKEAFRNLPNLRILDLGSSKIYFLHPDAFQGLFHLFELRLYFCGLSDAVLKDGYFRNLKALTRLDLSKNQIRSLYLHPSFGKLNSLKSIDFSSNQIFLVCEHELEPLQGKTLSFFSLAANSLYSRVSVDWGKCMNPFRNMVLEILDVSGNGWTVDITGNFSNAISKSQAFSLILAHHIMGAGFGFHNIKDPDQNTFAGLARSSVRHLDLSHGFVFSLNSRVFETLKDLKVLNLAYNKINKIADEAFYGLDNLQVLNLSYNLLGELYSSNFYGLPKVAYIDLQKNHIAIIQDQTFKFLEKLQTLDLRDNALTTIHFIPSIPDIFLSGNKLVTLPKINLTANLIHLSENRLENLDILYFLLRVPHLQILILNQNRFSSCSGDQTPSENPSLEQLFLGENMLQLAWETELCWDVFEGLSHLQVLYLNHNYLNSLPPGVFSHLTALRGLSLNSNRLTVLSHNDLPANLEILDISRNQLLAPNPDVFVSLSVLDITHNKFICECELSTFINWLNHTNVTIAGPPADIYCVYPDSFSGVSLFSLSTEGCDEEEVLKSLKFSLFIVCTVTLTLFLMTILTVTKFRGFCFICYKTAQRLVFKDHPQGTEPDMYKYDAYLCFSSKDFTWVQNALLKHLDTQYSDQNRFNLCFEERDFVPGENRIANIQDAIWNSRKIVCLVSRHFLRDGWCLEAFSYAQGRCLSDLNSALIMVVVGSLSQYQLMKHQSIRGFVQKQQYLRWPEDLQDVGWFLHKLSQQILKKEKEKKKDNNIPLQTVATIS
substance,measurement,value
"flagellin protein FliC from Salmonella enterica J341, recombinant, with C-terminal 6-histidine tag (from UniProt P06177 1-505) (ligand)",dose at which the stimulating activity (IL-8 and MCP-1 release of Caco-2 cells) reached saturation,> 1000 ng/mL
